# Source: the supplement of paper PMC10567573
# ± gives the standard deviation.
# Assay: protein stability index of a GFP-peptide fusion (GPS, HEK-293T) (PSI 1-6); higher = more stable
# Conditions: c terminus: a fixed tail appended
# 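Note: 24-mer peptide tiles fused after GFP, lentivirally expressed, FACS-sorted into six equal bins by GFP/DsRed ratio, decoded by Illumina sequencing, PSI is the read-weighted mean bin number.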
Sequence,protein stability index (treatment: DMSO),"protein stability index (treatment: MLN4924 1 uM, 8 h)"
FVLYFLLACWTYGISVPSGLFVPS [CLCN6],3.49 ± 0.56,3.09 ± 0.14
DVADDFENYHKLRRSSSKCIHDHH [NETO1],3.85 ± 0.15,4.15 ± 0.11
QLKIAANPFAKGFRENGRNCKRER [TBX6],3.33 ± 0.25,3.47 ± 0.33
KLGPALKIYEYHVKPLQTKHLKNN [SAMD13],2.46 ± 0.14,2.54 ± 0.22
PDRVYIHPDSPATGAHWMRQPVSF [TBX6],2.45 ± 0.22,2.54 ± 0.098
SINVLLMMHGLKPLSLVKRTDLKD [CEP70],2.6 ± 0.6,2.59 ± 0.78
ARLKRSQSFGVASASSIKQILLEW [SMTNL2],2.33 ± 0.28,2.29 ± 0.17
VQHQRVHTGEKPYKCLECGKAFSQ [ZNF24],3.29 ± 0.55,3.66 ± 0.46
GAYQPTVVSSEGRQSRRQSVSRFF [FBF1],4.01 ± 0.37,4.1 ± 0.32
VDLNRNFPDLNTYIYYNEKYGGPN [CPN1],2.64 ± 0.18,2.53 ± 0.52
AKLVPMGFTTATEFHQRRSEIIQI [RAD51],2.56 ± 0.6,1.98 ± 0.12
AIQYALNIAFSEAEGARPLRENVP [MATN2],2.36 ± 0.21,2.08 ± 0.23
NRASLYSFPEPEAAQPMTKKRKVD [PRAME],4.54 ± 0.27,4.74 ± 0.14
EAAGESLEEEIRRKQILLRGKLKK [ZC2HC1C],4.87 ± 0.33,4.59 ± 0.35
LTIEERYLPQCSYFKCVQKDIQPY [CCND2],2.37 ± 0.31,2.49 ± 0.24
RGNHESRQITQVYGFYDECLRKYG [PPP2CA],2.75 ± 0.4,2.59 ± 0.19
IAMAVYTYLRLIVDHHGTAQLQAL [INTS3],3.35 ± 0.51,3.17 ± 0.14
SEDRTVRVWLKRDSGQYWPSVYHA [WDFY2],2.27 ± 0.12,2.37 ± 0.21
ESEVYSWGKGARGRLGRRDEDAGL [NEK8],4.67 ± 0.19,4.66 ± 0.37
IFQMVIICLMCVHSLERAGSKQYS [SMG5],3.21 ± 0.28,3.27 ± 0.48
ELRRRRYEYDHWDAAIHGFRETEK [ALKBH7],3.5 ± 0.39,3.56 ± 0.44
RLPESVERLTGVSISQVNHKPLRT [FLOT1],4.06 ± 0.13,4.16 ± 0.32
LSLEAVICFKEMLANSWNCLPKHL [KLHDC2],2.49 ± 0.35,2.37 ± 0.53

Sequence,protein stability index (treatment: DMSO),"protein stability index (treatment: MLN4924 1 uM, 8 h)"
YTFLYLVCISTKTQCSEEDQCKIN [FEM1B],2.65 ± 0.51,2.33 ± 0.2
LLNTLSLAFVGGLPLAYQQTSAFA [TMEM175],3.2 ± 0.3,2.74 ± 0.42
LMQVHASRSNNMGIVGGFTQMIRE [SLC25A25],2.75 ± 0.21,2.94 ± 0.24
TWKSGKQTMLSHYRPFYVNKGNGI [TRIM29],2.36 ± 0.41,2.4 ± 0.2
GSDSVIMTGAYNNFFRMFDRNTKR [PPP2R2C],3.22 ± 0.22,3.39 ± 0.36
RAEQDSEVGPQEINKEELEGNSMR [GMCL1],5.6 ± 0.26,5.63 ± 0.14
FHLSLFQGWMNLLNMAKKSVDIVS [PLD5],2.99 ± 1.5,1.73 ± 0.94
NPKLPNISLDVLQPSFPEILLESH [POMT2],3.52 ± 0.21,3.84 ± 0.34
KQIKAGAYDFPSPEWDTVTPEAKD [CAMK2A],5.34 ± 0.26,5.27 ± 0.18
YCHPDSETDEDEEEGDEQQRLLNT [GMCL1],5.33 ± 0.37,5.2 ± 0.36
VNGSWYIQDLCEMLGKYGSSLEFT [CASP6],2.95 ± 0.65,2.67 ± 0.55
RGFQEENKALWENNKLKLQQKLVI [CBY2],3 ± 0.29,3.15 ± 0.43
RLKRTRLGLDDFESLKVIGRGAFG [STK38L],2.49 ± 0.22,2.7 ± 0.31
LGFARRNWGNGKRPNLETYYERVL [GDAP1],2.38 ± 0.38,2.36 ± 0.57
HILAAEQLSRDSTLGGKAFHITND [NSDHL],3.39 ± 0.1,3.49 ± 0.28
GFAERRIDKFGFIVGSQGAEGALE [TBC1D10A],3.93 ± 0.46,3.93 ± 0.19
VEFDVLPAFDALGQLTGGYKPNPQ [OAS1],2.85 ± 0.27,2.9 ± 0.21
RRPEDQELESLSAIEAELEKVAHQ [CHGA],5.15 ± 0.09,5.3 ± 0.24
KDLFEEKIKKSPLTICYPEYAGSN [GNAI1],3.96 ± 0.36,4.09 ± 0.21
FPLKPMVHRKSCSTGEAGTDGDHN [ZC2HC1C],4.53 ± 0.18,4.38 ± 0.27
SVCFIFTITIGMFPAVTVEVKSSI [SLC29A1],3.17 ± 0.55,3.46 ± 0.34
AGVSLSTLEELLPPNTRVLRVLPN [PYCR3],2.79 ± 0.26,2.63 ± 0.23
